{"source": "patent US20130202594A1", "about": "“ALK1 Antagonists and Their Uses in Treating Renal Cell Carcinoma” (priority 2012, published 2013)", "molecules": {"B1": {"name": "GDF7: growth differentiation factor, ALK1 ligand tested in CAM assay (protein)", "chain": "TALAGTRTAQGSGGGAGRGHGRRGRSRCSRKPLHVDFKELGWDDWIIAPLDYEAYHCEGLCDFPLRSHLEPTNHAIIQTLLNSMAPDAAPASCCVPARLSPISILYIDAANNVVYKQYEDMVVEACGCR"}, "B2": {"name": "rhB9: recombinant human BMP9 (protein)", "chain": "SAGAGSHCQKTSLRVNFEDIGWDSWIIAPKEYEAYECKGGCFFPLADDVTPTKHAIVQTLVHLKFPTKVGKACCVPTKLSPISVLYKDDMGVPTLKYHYEGMSVAECGCR"}}, "key": {"advanced RCC": {"system": "advanced RCC", "conditions": "cited from earlier work"}, "[1]": {"system": "angiogenesis in chick chorioallantoic membrane", "assay": "CAM (chick chorioallantoic membrane) angiogenesis assay", "assay_type": "in vivo", "text": "In preferred embodiments, an ALK1 ECD polypeptide binds to one or more of GDF5, GDF6, GDF7, BMP9 and BMP10. […] Binding may be assessed using purified proteins in solution or in a surface plasmon resonance system, such as a Biacore™ system. […] Bioassays for angiogenesis inhibitory activity include the chick chorioallantoic membrane (CAM) assay, the mouse corneal micropocket assay, or an assay known in the art for measuring the effect of administering isolated or synthesized proteins on implanted tumors. The CAM assay is described by O'Reilly, et al., in “Angiogenic Regulation of Metastatic Growth” Cell, 1994; 79 (2):315-328. Briefly, 3 day old chicken embryos with intact yolks are separated from the egg and placed in a petri dish. After 3 days of incubation, a methylcellulose disc containing the protein to be tested is applied to the CAM of individual embryos. After 48 hours of incubation, the embryos and CAMs are observed to determine whether endothelial growth has been inhibited. The mouse corneal micropocket assay involves implanting a growth factor-containing pellet, along with another pellet containing the suspected endothelial growth inhibitor, in the cornea of a mouse and observing the pattern of capillaries that are elaborated in the cornea. Other assays are described in the Examples.\nVEGF and FGF are well-known to stimulate angiogenesis. A CAM (chick chorioallantoic membrane) assay system was used to assess the angiogenic effects of GDF7.\nALK1-Fc fusions were tested for anti-angiogenic activity in the CAM assay.\nALK1-Fc proteins and a commercially available, anti-angiogenic anti-VEGF monoclonal antibody were compared in the CAM assay. The ALK1-Fc proteins had similar potency as compared to anti-VEGF. The anti-VEGF antibody bevacizumab is currently used in the treatment of cancer and macular degeneration in humans."}, "[2]": {"system": "collagen-induced arthritis", "assay": "Murine collagen-induced arthritis (CIA) model of rheumatoid arthritis", "assay_type": "in vivo, mouse", "conditions": "bevacizumab treated mice; day 42", "protocol": "RAP-041 is mALK1-Fc. Avastin™ is the anti-VEGF antibody bevacizumab.\nThe murine collagen-induced arthritis model is a well-accepted model of rheumatoid arthritis. […] Nonetheless, a dose-related trend is apparent.\nBy study termination at day 42 the incidence of arthritis had reached 10/10 in the vehicle control treated mice, 9/10 in the bevacizumab treated mice, 8/10 in the mALK1-Fc at 1 mg/kg treated group and 9/10 in the mALK1-Fc 10 mg/kg treated group. In the mALK1-Fc 25 mg/kg treated group disease incidence was lower at 6/10."}, "[3]": {"system": "angiogenesis in chick chorioallantoic membrane", "assay": "CAM assay of BMP9 and anti-BMP9 with or without VEGF", "assay_type": "in vivo", "conditions": "for effect on angiogenesis in the presence of VEGF: VEGF-mediated angiogenesis", "text": "A CAM (chick chorioallantoic membrane) assay system was used to assess the angiogenic effects of recombinant human BMP9 (rhB9) and anti-BMP9 monoclonal antibody (mabB9) (R&D Systems, Minneapolis, Minn., Cat. No. MAB3209). This antibody is known to neutralize BMP9/ALK1 signaling. See, e.g., Scharpfenecker et al., J Cell Sci. 2007 Mar. 15; 120(Pt 6):964-72; David et al., (2007); Blood March 1; 109(5):1953-61; David et al., Circ. Res. 2008 Apr. 25; 102(8):914-22.\nIn the absence of VEGF, both proteins were used at the 50 ng dosed 1×/day on days 1 and 3 in the 5-day cycle. […] However, the effects of the anti-BMP9 antibody are in remarkable contrast to the published literature."}}, "note": "“Also recorded” adds a separate entry of the source.", "data": [{"molecule": "interferon-alpha", "values": [{"measurement": "overall survival", "setting": "advanced RCC; patients with advanced disease", "value": 21.8, "unit": "months"}]}, {"molecule": "PDGF", "values": [{"measurement": "angiogenic effect (stimulation of angiogenesis)", "setting": "[1]", "value": "relatively poor capability to induce angiogenesis"}]}, {"molecule": "CCN(CC)CCNC(=O)c1c(C)[nH]c(/C=C2\\C(=O)Nc3ccc(F)cc32)c1C", "note": "[sunitinib]", "values": [{"measurement": "patients requiring dose reductions", "setting": "advanced RCC; RCC patients, to manage toxicities", "value": 50, "unit": "%"}]}, {"molecule": "bevacizumab", "values": [{"measurement": "incidence of arthritis", "setting": "[2]", "value": "9/10"}]}, {"molecule": "B1", "values": [{"measurement": "angiogenic effect (stimulation of angiogenesis)", "setting": "[1]", "value": "stimulates angiogenesis with a potency that is similar to that of VEGF; also recorded: comparable to that of VEGF"}]}, {"molecule": "B2", "values": [{"measurement": "effect on angiogenesis in the absence of exogenous VEGF", "setting": "[3]; 50 ng 1×/day on days 1 and 3", "value": "Neither BMP9 nor anti-BMP9 had a substantial effect on angiogenesis"}, {"measurement": "effect on angiogenesis in the presence of VEGF", "setting": "[3]", "value": "inhibit VEGF-mediated angiogenesis"}, {"measurement": "effect on angiogenesis in the presence of VEGF", "setting": "[3]; listed as BMP9", "value": "substantial anti-angiogenic effect"}, {"measurement": "angiogenic effect (stimulation of angiogenesis)", "setting": "[1]", "value": "relatively poor capability to induce angiogenesis"}]}]}
